# Experiment: yeast display, Sf9 membrane polyspecificity reagent, FACS + sequencing; frameworks hold sequencing errors
# Outline: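 After 36–48 hours of galactose induction, yeast (Saccharomyces cerevisiae BJ5465) displaying a synthetic nanobody library were stained at 4 °C for 1 hour with 10% biotinylated, detergent-solubilized Sf9 membrane reagent. Streptavidin microbeads enriched the stained cells before FACS sorting into low and high (top ~1%) gates on anti-HA and streptavidin fluorescence. Each clone's polyreactivity label reflects its gate of origin.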
row,Sequence,polyreactivity (PSR sort gate)
1,QVQLVESGGGLVQAGGSLRLSCAASGRIFPYYAMGWYRQAPGKERELVAAITTRGGSTYYADSVKGRFTISRDNAKNTVYLQMNSLKPEDTAVYYCAAVTFGRMEYWGQGTQVTVSS,low polyreactivity
2,QVQLVESGGGLVQAGGSLRLSSAASGRIFVAYAMGWYRQAPAKERELVAAITWSGTSTYADSVKGRFTISRDNAKNTVYLQMNSLKPEDTAVYYCAKKAIVSDQWDKYDYWGQGTQVTVSS,low polyreactivity
3,QVQLVDSGGGLVQAGGSLRLSCAASGRTFNLYAMGWYRQAPGKERELVATIDWTGGSTYYADSVKGRFTISRDNAKNTVYLQMNSLKPEDTAVYYCNADRFADYDYWGQGTQVTVSS,low polyreactivity
4,QVQLQESVGGLVQAGGSLRLSCAASGYISSWYPMGWYRQAPGKEREFVATIAPVATTYYADSVKGRFTISRDYAKNSVYLQMNSLKPEDTAVYYCAAGPENNDFYSYWGQGTQVTVSS,low polyreactivity
5,QVQLVESGGGLVQAGGSLRLSCAASGYIFGSYTMGWYRQAPGKERELVAGISRRGGGTYYADSVKGRFTMSRDNAKNNVYLQMNSLIPEDTAVYYCAAEVITIGLYRYGFWGQGTQVSVSS,high polyreactivity
6,QVQLVESGGGLVQAGGSLRLSCASSGRTFRKYAMGWYRQAPGKERELVAGIDTSGGSTFYADSVKGRFTISRDNAKNTVYLQMNSLKPEDTAVYYCNADRHRINRPVILYYWGQGTLVTVSS,low polyreactivity
7,QVQLVESGGGLVQAGGRLRLSCAASGCTSGLNVRGWYRQAPGQERELVAAMSTGGGSTYYADSVKGPFTISRDNAKNTVYLQMTSLQPEDTAVYYCAADQSSVQDFIYNYWAQGTQVTVSS,low polyreactivity
8,QVQLVESGGGLVQAGGSLRLTCAASGLTFWWYAMGWYRQAPGKERELVAGITGGGSTSYADSVKGRFTISRDNAKNTVYLQMNSLIQEDTAVYYCAASPYNGQRTWYKYFFLGDYWGQGTQVTVSS,high polyreactivity
9,QVQLVESGGGLVQAGGSLRLSCAPSGFTFLYYVMGWYRQAPGKERELVAAINAGGGSTYYAESVKGRFTLSRDNAKNSVYLQMKSLKPADTAVYYCNARVRVRLGRNWSSYYDWGQGTQVTVSS,high polyreactivity
10,QVQLEDSGGGLVQAGGRLRLSCAASGYIFSDYAMGWYRQAPGKERELVADIRARGGSTYYADSVKGRFTISRDKAQNTVYLQMNSLKPEDTAVYYCNVEDPFYSGVVEFDYWGQGTQVTVSS,low polyreactivity
11,QVQLVESGGGLVQAGGSLRLSCAASGITFYTYAMGWYRQAPRKERELVAAISGSGGSTYYADSVKGRFTISRDNAKNTVYLQMNSLKPEDTAVYYCAARWPRGPFGNRHDYWGQGTQVTVSS,high polyreactivity
12,QVQLVESGGGLVQAGGSLRLSCAASGRIFVDNAMGWYRQAPGKERELVAAITRGGSTYADSVKGRFTISRDNAQNTVYLQMISLKPEDTAVYYCAADLWSVPFTVYTFGIFYYWGQGTQVTVSS,low polyreactivity
13,QVQLVESGGGLVQAGGSLRLSCAASGITFTDYAMGWYRPAPGKERELVAAISSRGGSTYYADSVKGRFTISRDHAKNTVYLQMNSLKPEDTAVYYCNARFVRRGSGYDYWGQGTQVTLSS,high polyreactivity
14,QVQLVESGGGLVQAGGSLRLSCAASGGTFTTNAMGWYRQAPGKERELVAAITSSGVRTYYADSVKGRFTISRDNAKNTVYLQMNSLKPEDTAVYYCNAVTRYVRLTDDDYWGQGTQVTVSS,high polyreactivity
15,QVQLVEAGGGLVQAGGSLRLSCAASGSTFSYAMGWYRQAPGKETELVAAITIGGRTSYADSVKGRFTISRDNAKNTVYLQMNSLKPEDTAVYYCAAEGYYPVYYYVYYGFDYWGQGTQVTVSS,low polyreactivity
16,QVQLVESGGGLVQAGGSLGLSCAASGRTFGRYVMGWYRLAPGTEWELVAAIRSSGGGTYYADSVKGRFTISRDNAKNTVYLQMNSLKPEETAVYYCAKEYSIGIRWEYDYWGQGTQVTVSS,low polyreactivity

# Reference: the nanobody polyreactivity screen of Harvey et al. (2022)
